B1: full-length antibody 3-1B11 (antibody, human IgG1, V domains shown)
VH: EVQLVESGGGLVQPGGSLRLSCAASGFTFSDYDMIWVRQAPGKGLEWVAVISYDGSNKYYADSVKGRFTISRDNSKNTLYLQMNSLRAEDTAVYYCAKEFFGAFDIWGQGTMVTVSS
VL: SSELTQDPAVSVALGQTVTITCQGDSLNYYYANWFQLKPGQAPVLVLFGKNNRPSGIPDRFSGSYSGSTASLTITGAQAEDDADYYCNSRDSGGNPWVFGGGTKLTVL
notes: Tested as a full-length antibody; the summary speaks of human IgG1
B2: full-length antibody 3-1E4 (antibody, human IgG1, V domains shown)
VH: QIQLVQSGAEVKKPGSSVKVSCKASGGTFSSYAISWVRQAPGQGLEWMGGIIPIFGTANYAQKFQGRVTITADKSTSTAYMELSSLRSEDTAVYYCAGGGAVADNSYWGQGTLVTVSS
VL: DIRMTQSPSSLSASVGDRVTITCRASQGIRNDLGWYQQKPGKAPKLLIYAASSLQSGVPSRFSGSGSGTDFTLTISSLQPEDFATYYCLQDYNYPRTFGQGTKVEIK
notes: as for B1
B3: full-length antibody 4-1E8 (antibody, human IgG1, V domains shown)
VH: QIQLVQSGAEVKMPGASVTISCEASGYNFISYYIHWVRQAPGQGLEWMGFVVPSGGAAGYTQKFQGRLTVTRDTSTSTVYMDLNSLTSDDTAVYYCVREMSGGWFDFWGQGTLVTVSS
VL: DIVMTQSPSSLSASVGDRVTITCRASQGIRNDLGWYQQKPGKAPKLLIYAASTLQSGVPSRFSGSGSGTDFTLTISSLQAEDVAVYYCQQYYSTPLTFGPGTKVDIK
notes: Tested as a full-length antibody made from the scFv's VH and VL in 293T cells; the summary speaks of a human IgG1 constant region, and ADCC activity is reported

T2 sequence (chain, as listed by the source): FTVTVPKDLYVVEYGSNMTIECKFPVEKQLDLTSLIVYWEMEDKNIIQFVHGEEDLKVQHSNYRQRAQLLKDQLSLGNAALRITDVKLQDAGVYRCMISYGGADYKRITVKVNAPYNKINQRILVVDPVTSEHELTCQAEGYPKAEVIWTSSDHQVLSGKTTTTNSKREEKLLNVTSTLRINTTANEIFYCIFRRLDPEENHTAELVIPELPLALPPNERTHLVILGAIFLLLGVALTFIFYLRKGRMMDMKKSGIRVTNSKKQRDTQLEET

In the first assay the target is T1, Rhesus PDL1 (expression construct transiently transfected into 293T cells) (Rhesus, UniProt F6VEW6 19-290).
T1 construct: whole, on cells
Kind of assay: FACS on 293T cells transiently transfected with Rhesus PDL1. The procedure: (B) 293T cells were transiently transfected with Rhesus PDL1 expression construct. Embodiments 4-1E8, 3-1E4 and 3-1B11 were tested and compared to control.
Turning to B1, the binding result is “binds”.
B2: the binding result was “binds”.
Regarding B3, the binding result was “binds”.

A further assay addresses T2, Rhesus PDL1-GFP (expression construct transiently transfected into 293T cells) (Rhesus, UniProt F6VEW6 19-290).
T2 construct: whole, on cells; not shown: GFP fused to PDL1
The experiment in a line: FACS on 293T cells transiently transfected with Rhesus PDL1-GFP. The procedure:
(A) 293T cells were transiently transfected with Rhesus PDL1-GFP expression construct. Embodiments 4-1E8, 3-1E4 and 3-1B11 were tested and compared to control.
As for B1, the binding result is “binds”.
For B2, the binding result is given as “binds”.
As for B3, the binding result is “binds”.

For the origin of these results see patent publication US20210332138A1 (1GLOBE BIOMEDICAL, published 2021).
